Laboratory results as given in patent publication US9395368B2, “Methods, agents and peptides for inducing an immune response to matrix metalloproteinase-2 expressing tumors” (New York University, priority 2010, dated 2016).

B1: heat-inactivated MMP-2: MMP-2 enzyme inactivated by heating to 56° C. for 45 min (protein, UniProt P08253 110-660, looked up)
72 kDa type IV collagenase: YNFFPRKPKWDKNQITYRIIGYTPDLDPETVDDAFARAFQVWSDVTPLRFSRIHDGEADIMINFGRWEHGDGYPFDGKDGLLAHAFAPGTGVGGDSHFDDDELWTLGEGQVVRVKYGNADGEYCKFPFLFNGKEYNSCTDTGRSDGFLWCSTTYNFEKDGKYGFCPHEALFTMGGNAEGQPCKFPFRFQGTSYDSCTTEGRTDGYRWCGTTEDYDRDKKYGFCPETAMSTVGGNSEGAPCVFPFTFLGNKYESCTSAGRSDGKMWCATTANYDDDRKWGFCPDQGYSLFLVAAHEFGHAMGLEHSQDPGALMAPIYTYTKNFRLSQDDIKGIQELYGASPDIDLGTGPTPTLGPVTPEICKQDIVFDGIAQIRGEIFFFKDRFIWRTVTPRDKPMGPLLVATFWPELPEKIDAVYEAPQEEKAVFFAGNEYWIYSASTLERGYPKPLTSLGLPPDVQRVDAAFNWSKNKKTYIFAGDKFWRYNEVKKKMDPGFPKLIADAWNAIPDNLDAVVDLQGGGHSYFFKGAYYLKLENQSLKSVKFGSIKSDWLGC
modifications: heat-inactivated
B2: MMP-2+I: MMP-2 enzyme inactivated by addition of the MMP-2 inhibitor III at 100 nM for 20 min (protein, UniProt P08253 110-660, looked up)
72 kDa type IV collagenase: YNFFPRKPKWDKNQITYRIIGYTPDLDPETVDDAFARAFQVWSDVTPLRFSRIHDGEADIMINFGRWEHGDGYPFDGKDGLLAHAFAPGTGVGGDSHFDDDELWTLGEGQVVRVKYGNADGEYCKFPFLFNGKEYNSCTDTGRSDGFLWCSTTYNFEKDGKYGFCPHEALFTMGGNAEGQPCKFPFRFQGTSYDSCTTEGRTDGYRWCGTTEDYDRDKKYGFCPETAMSTVGGNSEGAPCVFPFTFLGNKYESCTSAGRSDGKMWCATTANYDDDRKWGFCPDQGYSLFLVAAHEFGHAMGLEHSQDPGALMAPIYTYTKNFRLSQDDIKGIQELYGASPDIDLGTGPTPTLGPVTPEICKQDIVFDGIAQIRGEIFFFKDRFIWRTVTPRDKPMGPLLVATFWPELPEKIDAVYEAPQEEKAVFFAGNEYWIYSASTLERGYPKPLTSLGLPPDVQRVDAAFNWSKNKKTYIFAGDKFWRYNEVKKKMDPGFPKLIADAWNAIPDNLDAVVDLQGGGHSYFFKGAYYLKLENQSLKSVKFGSIKSDWLGC
modifications: with MMP-2 inhibitor III
B3: rhIL-12: recombinant human IL-12 from R&D Systems (protein)
chain 1: RNLPVATPDPGMFPCLHHSQNLLRAVSNMLQKARQTLEFYPCTSEEIDHEDITKDKTSTVEACLPLELTKNESCLNSRETSFITNGSCLASRKTSFMMALCLSSIYEDLKMYQVEFKTMNAKLLMDPKRQIFLDQNMLAVIDELMQALNFNSETVPQKSSLEEPDFYKTKIKLCILLHAFRIRAVTIDRVMSYLNAS
chain 2: IWELKKDVYVVELDWYPDAPGEMVVLTCDTPEEDGITWTLDQSSEVLGSGKTLTIQVKEFGDAGQYTCHKGGEVLSHSLLLLHKKEDGIWSTDILKDQKEPKNKTFLRCEAKNYSGRFTCWWLTTISTDLTFSVKSSRGSSDPQGVTCGAATLSAERVRGDNKEYEYSVECQEDSACPAAEESLPIEVMVDAVHKLKYENYTSSFFIRDIIKPDPPKNLQLKPLKNSRQVEVSWEYPDTWSTPHSYFSLTFCVQVQGKSKREKKDRVFTDKTSATVICRKNASISVRAQDRYYSSSWSEWASVPCS

Tests used:
Format in all cases: cell-based, human
[1] = system: Cord blood-derived CD4+/CD25- cells; assay: Priming of naive CD4+ T cells to Melan-A/MART-1 or NY-ESO-1 with DCs pre-incubated with MMP-2
Description: (A) Cord blood-derived CD4^+/CD25^− cells were stimulated with autologous poly(I:C)-matured DCs pulsed with overlapping peptides spanning either Melan-A/MART-1 or NY-ESO-1. Prior to poly(I:C) addition, DCs were incubated with or without MMP-2 (active or heat-inactivated) for 1 h. MMP-2 enzymatic activity was controlled (FIG. 13C-D). After 15 days, CD4^+ T cells were stimulated with the Melan-A/MART-1 or NY-ESO-1 peptide pools (2 μM) for 6 h before intracellular staining of cytokines. Percentages of antigen-specific CD4^+ T cells, secreting indicated cytokines, are represented for all donors. (B) Contour plots showing percentages of cytokine-producing CD4^+ T cells are shown for representative donor CB45 primed to Melan-A/MART-1. Percentage of secreting cells upon peptide stimulation was considered specific/positive when it exceeded by more than twofold the background (cytokine-secreting cells in the absence of stimulation) and had more than 0.5% of responding cells (after background subtraction) for at least one cytokine. For each cytokine, 2 paired t-tests were used to compare priming in the presence of active MMP-2 to either priming in the absence of active MMP-2 or with HI MMP-2. The Bonferroni adjustment was used for multiple comparisons. P values≦0.025 (*) were considered statistically significant using a Bonferroni correction for 2 comparisons.
(§1) T Cell culture, stimulation and priming. Peripheral blood mononuclear cells (PBMCs) were purified from healthy donor-(HD) or cord blood donor-(CB) derived buffy coats (New York Blood Center) by Ficoll-Paque Plus (GE Healthcare) centrifugation. CD4^+/CD25^− cells were enriched (>90%) by magnetic cell sorting (Miltenyi Biotec) and primed/stimulated for 12-15 days either with irradiated (35Gy) autologous CD4^− cells or with autologous mature DCs in IMDM (GIBCO) supplemented with 1 mM HEPES (Life Technologies), 2 mM L-glutamine (Sigma), streptomycin (100 UI/mL)/penicillin (100 μg/mL) (Sigma) and 5% heat inactivated pooled human serum (PHS; Valley Biomedical) in the presence of rhIL-2 (10 UI/mL) and IL7 (5 ng/mL) (R&D Systems). Antigen presenting cells (CD4^− cells or DCs) were loaded either with peptides (2 μM) or with the MMP-2 protein (10 μg/mL) for 2 and 5 h, respectively. DCs were matured using the TLR3 agonist poly(I:C) at 5 μg/mL/10^6 DCs (Amersham). To generate T cell clones, we originally relied on our published methodology (Godefroy et al., 2006; Godefroy et al., 2007; the entire contents of each of which is incorporated herein by reference), involving enrichment of IFNγ-secreting cells upon short-term culture and peptide stimulation to generate MMP-2 responsive clones. Briefly, CD4^+ T cells were stimulated by CD4^− cells irradiated and pulsed with peptides for 12 days in the presence of rhIL-2 and rhIL-7. CD4^+ T cells were then restimulated with peptides for 3 hours before capturing IFNγ-secreting specific cells using a bispecific antibody coating T cells and capturing produced IFNγ. Positive cells were purified magnetically before being cloned. Although MMP-2-specific cells could be isolated, it was realized that IFNγ secretion was marginal compared to their secretion of IL-4 and TNFα. IFNγ-secreting cells in response to MMP-2 peptide pool were enriched by cytokine-guided magnetic cell sorting (Miltenyi Biotec) as described above and cloned the following day by limiting dilution in the presence of irradiated allogeneic PBMCs, 1 μg/mL phytohemagglutinin-L (Sigma) and 150 UI/mL rhIL-2. Tumor infiltrating lymphocytes (TILs) were provided by Pr. F. Jotereau and B. Dréno. They were obtained from tumor-invaded lymph nodes of melanoma patients (stage Mb) and expanded ex vivo. These patients received autologous TILs and IL-2 infusions in a clinical trial (Labarriere et al., 2002). This protocol was approved by the Institutional Ethics Committee and registered with regulatory state authority in France (Nantes). […]

[2] = system: Cord blood-derived CD4+/CD25- cells; assay: Priming of naive cord blood CD4+ T cells with autologous CD4- cells loaded with different sources of MMP-2; conditions: for percentage of MMP-2-specific CD4+ T cells secreting IL-4, mean: 11 cord blood donors, 15 days after priming, after background subtraction; for mean of the individual differences in IL-4 secreting cells versus priming with active MMP-2: paired within donors
Description: Cord blood-derived CD4^+/CD25^− cells from 11 donors were stimulated with irradiated autologous CD4^− cells loaded either with active MMP-2, heat-inactivated (HI) MMP-2 or with MMP-2 pre-incubated with a specific inhibitor (+I). After 15 days, CD4^+ T cells were stimulated with the MMP-2 peptide pool (2 μM) for 6 h before intracellular staining of cytokines. (A) Density plots representing cytokine production by CD4^+ T cells are shown for the representative donor CB35 primed to MMP-2 either in its active form or after heat-inactivation. Numbers indicate percentages of cytokine-producing cells upon MMP-2 peptide stimulation. […] MMP-2 enzymatic activity was controlled (FIG. 13C-D). For each cytokine, 3 paired t-tests were used to compare active MMP-2 to heat inactivated MMP-2, to MMP-2+I, and to MMP-2 peptides. P values≦0.0167 (*) were considered statistically significant using a Bonferroni correction for 3 comparisons.
T Cell culture, stimulation and priming. Peripheral blood mononuclear cells (PBMCs) were purified from healthy donor-(HD) or cord blood donor-(CB) derived buffy coats (New York Blood Center) by Ficoll-Paque Plus (GE Healthcare) centrifugation. CD4^+/CD25^− cells were enriched (>90%) by magnetic cell sorting (Miltenyi Biotec) and primed/stimulated for 12-15 days either with irradiated (35Gy) autologous CD4^− cells or with autologous mature DCs in IMDM (GIBCO) supplemented with 1 mM HEPES (Life Technologies), 2 mM L-glutamine (Sigma), streptomycin (100 UI/mL)/penicillin (100 μg/mL) (Sigma) and 5% heat inactivated pooled human serum (PHS; Valley Biomedical) in the presence of rhIL-2 (10 UI/mL) and IL7 (5 ng/mL) (R&D Systems). Antigen presenting cells (CD4^− cells or DCs) were loaded either with peptides (2 μM) or with the MMP-2 protein (10 μg/mL) for 2 and 5 h, respectively. DCs were matured using the TLR3 agonist poly(I:C) at 5 μg/mL/10^6 DCs (Amersham). To generate T cell clones, we originally relied on our published methodology (Godefroy et al., 2006; Godefroy et al., 2007; the entire contents of each of which is incorporated herein by reference), involving enrichment of IFNγ-secreting cells upon short-term culture and peptide stimulation to generate MMP-2 responsive clones. Briefly, CD4^+ T cells were stimulated by CD4^− cells irradiated and pulsed with peptides for 12 days in the presence of rhIL-2 and rhIL-7. CD4^+ T cells were then restimulated with peptides for 3 hours before capturing IFNγ-secreting specific cells using a bispecific antibody coating T cells and capturing produced IFNγ. Positive cells were purified magnetically before being cloned. Although MMP-2-specific cells could be isolated, it was realized that IFNγ secretion was marginal compared to their secretion of IL-4 and TNFα. IFNγ-secreting cells in response to MMP-2 peptide pool were enriched by cytokine-guided magnetic cell sorting (Miltenyi Biotec) as described above and cloned the following day by limiting dilution in the presence of irradiated allogeneic PBMCs, 1 μg/mL phytohemagglutinin-L (Sigma) and 150 UI/mL rhIL-2. Tumor infiltrating lymphocytes (TILs) were provided by Pr. F. Jotereau and B. Dréno. They were obtained from tumor-invaded lymph nodes of melanoma patients (stage Mb) and expanded ex vivo. These patients received autologous TILs and IL-2 infusions in a clinical trial (Labarriere et al., 2002). This protocol was approved by the Institutional Ethics Committee and registered with regulatory state authority in France (Nantes).
Intracellular staining T-bet and GATA-3 expression was measured on resting T cells. Cells were fixed (4% paraformaldehyde for 10 min at RT), permeabilized with 0.1% saponin, and stained for intracellular transcription factors. Cytokine production by T cells was also assessed by intracellular staining T cells were stimulated with 2 μM overlapping peptides. After 1 h, 10 μg/mL brefeldin A was added to the cells. […]

[3] = system: Cord blood-derived CD4+/CD25- cells; assay: Priming of naive CD4+ T cells with active MMP-2-loaded DCs with rhIL-12 or blocking mAb for OX40L or IL-4
Description: […] CD4^+ T cells were then stimulated with the MMP-2 peptide pool (2 μM) for 6 h before intracellular staining of cytokines. Contour plots representing cytokine production by CD4^+ T cells are shown for donor CB31 CD4^+ T cells primed to MMP-2 alone, or together with rhIL-12, anti-OX40L mAb or anti-IL-4 mAb. (B) Percentages of MMP-2-specific CD4^+ T cells, secreting indicated cytokines, are represented for all donors. For each cytokine, 5 paired t-tests were used to compare “no conditioning” versus various conditions. P values≦0.01 (*) were considered statistically significant using a Bonferroni correction for 5 comparisons.
as §1, with “TNFα.” for “TNFα. IFNγ-secreting cells in response to MMP-2 peptide pool were enriched by cytokine-guided magnetic cell sorting (Miltenyi Biotec) as described above and cloned the following day by limiting dilution in the presence of irradiated allogeneic PBMCs, 1 μg/mL phytohemagglutinin-L (Sigma) and 150 UI/mL rhIL-2. Tumor infiltrating lymphocytes (TILs) were provided by Pr. F. Jotereau and B. Dréno. They were obtained from tumor-invaded lymph nodes of melanoma patients (stage Mb) and expanded ex vivo. These patients received autologous TILs and IL-2 infusions in a clinical trial (Labarriere et al., 2002). This protocol was approved by the Institutional Ethics Committee and registered with regulatory state authority in France (Nantes).”
Intracellular staining T-bet and GATA-3 expression was measured on resting T cells. […] Cytokine production by T cells was also assessed by intracellular staining T cells were stimulated with 2 μM overlapping peptides. […]

[4] = rhIL-12 10 ng/mL or mAb 10 μg/mL throughout priming

Row | Molecule | IFNγ, mean of differences relative to priming in the presence of active MMP-2 [1] | IL-2, mean of differences relative to priming in the presence of active MMP-2 [1] | IL-4, mean of differences relative to priming in the presence of active MMP-2 [1] | percentage of MMP-2-specific CD4+ T cells secreting IL-4, mean [2] | mean of the individual differences in IL-4 secreting cells versus priming with active MMP-2 [2] | IFNγ-secreting cells ([3]; doses as low as 1 ng/mL) | percentages of IL4-secreting T cells ([3]; doses as low as 1 ng/mL) | IFNγ secretion by primed MMP-2-specific CD4+ T cells versus no conditioning [3, 4] | IL-4 secretion by primed MMP-2-specific CD4+ T cells versus no conditioning [3, 4]
1 | B1 | 0.21 | 0.11 | 1.92 | 0.45% | 1.80 | – | – | – | –
2 | B2 | – | – | – | 0.12% | 1.47 | – | – | – | –
3 | B3 | – | – | – | – | – | more | lower percentages | more | less
